Two proteins from publication PMC4474532 (The EMBO Journal, 2015) can be followed below.

Data set [1] concerns the molecule itself. The data set is described as follows: crystal structure; human PERK LD, untagged, 5 mg/ml, hanging drops, 0.1 M Tris pH 8.5, 0.2 M MgCl2, 25% w/v PEG3350, 7% glycerol, 18°C; tungstate MAD; 3.1 Å.
Data set [2] deals with the molecule itself. The experiment in a line: SAXS; H. sapiens PERK LD 1.25 mg/ml (results: 1–5 mg/ml); 50 mM HEPES pH 7.8, 200 mM NaCl, 2 mM TCEP; profiles computed from the crystal structures fitted with OLIGOMER
Data set [3] concerns the molecule itself. The experiment in a line: crystal structure; mouse PERK LD, untagged, 20 mg/ml, hanging drops, 0.1 M MES/imidazole pH 6.5, NPS mix, 12.5% PEG1000, 12.5% PEG3350, 20% MPD, 18°C; 3.3 Å.
Data set [4] concerns the molecule itself. The data set is described as follows: AUC; sedimentation velocity, 20°C, PERK LD proteins at 30 μM; 50 mM HEPES pH 7.8, 200 mM NaCl, 2 mM TCEP; c(s) by Sedfit; dimer to tetramer equilibrium.

B1: human PERK luminal domain (residues 105–403) (domain or fragment, UniProt Q9NZJ5 105-403, looked up)
chain: LVIISTLDGRIAALDPENHGKKQWDLDVGSGSLVSSSLSKPEVFGNKMIIPSLDGALFQWDQDRESMETVPFTVESLLESSYKFGDDVVLVGGKSLTTYGLSAYSGKVRYICSALGCRQWDSDEMEQEEDILLLQRTQKTVRAVGPRSGNEKWNFSVGHFELRYIPDMETRAGFIESTFKPNENTEESKIISDVEEQEAAIMDIVIKVSVADWKVMAFSKKGGHLEWEYQFCTPIASAWLLKDGKVIPISLFDDTSYTSNDDVLEDEEDIVEAARGATENSVYLGMYRGQLYLQSSVRI
In the case of B1, in data set [1], the “stoichiometry N” value is 4. In data set [2], the “dimer to tetramer ratio” value is 1.5 dimer:tetramer and the “stoichiometry N” value was determined as 2.

B2: mouse PERK luminal domain (residues 101–399) (domain or fragment, UniProt Q9Z2B5 101-399, looked up)
chain: LVIISTLDGRIAALDAENDGKKQWDLDVGSGSLVSSSLSKPEVFGNKMIIPSLDGDLFQWDRDRESMEAVPFTVESLLESSYKFGDDVVLVGGKSLITYGLSAYSGKLRYICSALGCRRWDSDEMEEEEDILLLQRTQKTVRAVGPRSGSEKWNFSVGHFELRYIPDMETRAGFIESTFKPGGNKEDSKIISDVEEQEATMLDTVIKVSVADWKVMAFSRKGGRLEWEYQFCTPIASAWLVRDGKVIPISLFDDTSYTASEEALGDEEDIVEAARGATENSVYLGMYRGQLYLQSSVRV
As for B2, the “stoichiometry N” value in data set [3] amounted to 2. Besides, in data set [4], the “dimer to tetramer ratio” value is ~1.5 dimer:tetramer and the “stoichiometry N” value is 4.

The term stoichiometry N denotes the number of molecules, sites or subunits per partner or assembly.
